Earlier results as cited in paper PMC11475284.
Values joined by “and” are separate entries in the source; they are usually repeats but may differ in a detail not shown here. Equal entries are not always repeated.

Target: Axin1 DAX (Homo sapiens) (UniProt O15169)
Assay: SEC-MALS

Axin1 DAX (from UniProt O15169)
Kd: 900 nM and 240 nM
